Patent publication CN117567625A (INST MED BIOTECHNOLOGY CAMS, dated 2024)

Target: T1, Claudin18.2 on 人胃癌NUGC4细胞 (human, UniProt P56856-2 1-261)
T1 construct: whole, on cells
T1 sequence (looked up): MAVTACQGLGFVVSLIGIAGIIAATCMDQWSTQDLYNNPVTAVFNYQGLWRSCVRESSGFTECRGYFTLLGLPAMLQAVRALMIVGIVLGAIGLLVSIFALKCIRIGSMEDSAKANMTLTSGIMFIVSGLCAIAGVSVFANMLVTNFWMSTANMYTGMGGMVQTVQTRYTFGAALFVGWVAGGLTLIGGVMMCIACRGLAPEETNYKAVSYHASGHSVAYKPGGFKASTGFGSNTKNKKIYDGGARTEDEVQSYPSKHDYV
Experiment: flow cytometry on NUGC4 cells, anti-mouse IgG Fc-FITC

B1: 抗Claudin18.2小鼠单克隆抗体m1D6 (antibody, V domains shown)
VH: QVQLQQPGPELVMPGASVKLSCKASGYTFTSYRMHWVKQRPGQGLEWIGEIDPSNSYTNYNQNFRGRSTLTVDKSSSTAYMQLSSLTSGDSAVYYCARLGRGNTLGYWGQGTSVTVSS
VL: DIVMTQSPSSLTVTAGEKVTVGCKSSQSLLNSGNQKNYLTWYQQKPGQPPKLLIYWASTRESGVPDRFTGSGSGTDFTLTIRSVQAEDLAVYYCQNGYSYPFTFGSGTKLEIKR
notes: Both printed entries appear to start with a leader peptide ahead of the variable region; For in vivo imaging the antibody was labelled with Dylight680
binding result: binds
